Values of other authors as cited in article PMC10581250.

What was measured:
[1] = molecular target: KGD (Mycobacterium smegmatis) (UniProt A1KI36)
[2] = molecular target: OdhA (E1oE2o subunit) (Corynebacterium glutamicum) (UniProt Q8NRC3)
[3] = molecular target: OdhA (Corynebacterium glutamicum) (UniProt Q8NRC3); experiment: surface plasmon resonance

Chain of UniProt A1KI36 (A1KI36 whole entry): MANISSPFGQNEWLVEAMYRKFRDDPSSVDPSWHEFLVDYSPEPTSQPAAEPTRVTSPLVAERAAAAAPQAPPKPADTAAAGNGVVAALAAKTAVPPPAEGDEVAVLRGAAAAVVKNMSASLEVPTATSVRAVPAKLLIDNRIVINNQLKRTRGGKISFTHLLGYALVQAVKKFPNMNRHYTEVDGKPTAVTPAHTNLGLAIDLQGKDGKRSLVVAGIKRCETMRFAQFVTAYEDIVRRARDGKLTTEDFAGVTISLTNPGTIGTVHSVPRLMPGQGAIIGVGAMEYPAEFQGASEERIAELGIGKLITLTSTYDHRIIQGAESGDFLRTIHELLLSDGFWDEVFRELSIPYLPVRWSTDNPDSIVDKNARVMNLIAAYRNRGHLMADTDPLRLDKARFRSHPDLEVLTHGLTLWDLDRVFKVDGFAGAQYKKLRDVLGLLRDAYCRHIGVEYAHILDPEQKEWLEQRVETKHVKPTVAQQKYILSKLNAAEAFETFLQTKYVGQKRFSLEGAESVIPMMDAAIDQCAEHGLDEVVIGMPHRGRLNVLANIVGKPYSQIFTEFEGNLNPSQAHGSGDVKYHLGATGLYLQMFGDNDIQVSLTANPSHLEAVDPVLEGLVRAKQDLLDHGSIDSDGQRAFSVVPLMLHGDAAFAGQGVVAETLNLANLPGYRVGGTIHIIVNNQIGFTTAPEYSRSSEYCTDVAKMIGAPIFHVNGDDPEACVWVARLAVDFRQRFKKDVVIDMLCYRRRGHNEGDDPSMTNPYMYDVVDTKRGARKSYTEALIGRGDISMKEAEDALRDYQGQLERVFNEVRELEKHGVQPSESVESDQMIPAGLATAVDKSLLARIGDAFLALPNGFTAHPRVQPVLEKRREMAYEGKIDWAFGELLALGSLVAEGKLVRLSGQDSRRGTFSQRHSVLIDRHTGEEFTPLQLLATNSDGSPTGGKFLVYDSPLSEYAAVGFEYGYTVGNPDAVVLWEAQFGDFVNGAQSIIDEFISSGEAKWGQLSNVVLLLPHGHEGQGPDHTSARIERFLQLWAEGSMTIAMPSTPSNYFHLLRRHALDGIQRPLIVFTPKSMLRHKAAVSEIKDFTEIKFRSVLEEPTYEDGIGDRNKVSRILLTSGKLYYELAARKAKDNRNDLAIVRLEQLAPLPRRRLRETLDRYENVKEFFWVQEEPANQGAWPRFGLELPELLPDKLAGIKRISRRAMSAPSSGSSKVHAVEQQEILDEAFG

Substance	Kd [1]	Ki [2]	Kd [3]
GarA (from UniProt P9WJA9)	1920 nM	–	–
OdhI (from UniProt Q8NQJ3)	–	2.4 nM	13.8 nM
